The results in this text go back to article doi:10.1101/2022.11.16.516715 (bioRxiv, 2022).

The series concerns the molecule itself. In words: cryo-EM structure.

B1: RsmA (natural protein)
chain: not shown
As to B1, the binding result was “binds”.
